Experimental data from patent publication US20230227567A1 (SELVAX, published 2023).

Columns and labels:
[1] = biological target: T1, CD40 expressed on the surface of human peripheral blood mononuclear cells (human, UniProt P25942 21-277); experiment: flow cytometry on human PBMC
T1 construct: Native CD40 on primary human cells (PBMC, B cells, monocyte-derived dendritic cells); also called native CD40 protein; CD40 on the surface of B cells
Protocol: PMBC were stained with an anti-human CD19 antibody labelled with PE. […] Lymphocytes were gated based on FSC-A and SSC-A signals.
FACS staining was carried out on 10⁶ human PBMC per well. […] Cells were washed twice with FACS buffer and resuspended in 20 μl of BV421 anti-mouse Ig diluted in FACS buffer and incubated for 30 minutes. Cells were washed twice with FACS buffer and resuspended in 20 μl of PE anti-human CD19 diluted in FACS buffer and incubated for 30 minutes. Cells were washed once with FACS buffer and once with PBS and resuspended in 100 μl of 1% formaldehyde in PBS and incubated for 20 minutes. Cells were washed twice with FACS buffer and resuspended in 200 μl of FACS buffer for analysis.
FACS staining controls included an unstained control, PE anti-human CD19 and BV421 mouse anti-human Ig single stain controls and human IgG1 isotype control. Cell staining was analysed using a FACS Canto II flow cytometer (BD). PMT voltages and gates for analysis were set using the FACS staining controls.

[2] = biological target: T2, recombinant human CD40 extracellular domain with C-terminal 6His tag (Novoprotein) (human); experiment: SPR Biacore T200, SVX-3001 amine-coupled to CM5, CD40-6His analyte, 1:1 model; value 3
T2 construct: Bought reagent; also called CD40-6His; CD40-His
T2 sequence (P25942 21-193): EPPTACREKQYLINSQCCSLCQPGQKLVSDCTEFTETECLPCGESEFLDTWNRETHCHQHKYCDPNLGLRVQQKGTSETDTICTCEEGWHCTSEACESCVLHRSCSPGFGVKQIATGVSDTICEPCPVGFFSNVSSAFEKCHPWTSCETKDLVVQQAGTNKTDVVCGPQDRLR
Protocol: (§1) Method: Kinetic analysis by surface plasmon resonance (SPR) was carried out using the Biacore T200 (GE Healthcare). HBS-EP+ buffer was used as running buffer throughout.
(§2) Target immobilisation level: 600 RU. Wash solution: Ethanolamine.
(§3) Injection parameters for the sample were contact time: 120 seconds, flow rate: 30 μI/min, dissociation time: 300 seconds. Injection parameters for regeneration were contact time: 30 seconds, flow rate: 30 μI/min, stabilisation period: 0 seconds. Regeneration solution was either 10 mM glycine-HCl buffer pH 1.5 or 50 mM NaOH. The concentrations of CD40-His and CD40-Fc used for the kinetic analysis were […]. The model 1:1 binding was used for curve fitting.

[3] = biological target: T2, recombinant human CD40 extracellular …; experiment: SPR Biacore T200, SVX-3001 amine-coupled to CM5, CD40-6His analyte, 1:1 model; value 2
Protocol: as §1, §2, §3

[4] = biological target: T3, recombinant human CD40 extracellular domain with a C-terminal human IgG1 Fc domain and 6His tag (BioLegend) (human); experiment: SPR Biacore T200, SVX-3001 amine-coupled to CM5, CD40-Fc analyte, 1:1 model; value 1
T3 construct: Bought reagent; also called CD40-Fc
T3 sequence (P25942 21-193): as above
Protocol: as §1, §2, §3

[5] = biological target: T3, recombinant human CD40 extracellular …; experiment: SPR Biacore T200, SVX-3001 amine-coupled to CM5, CD40-Fc analyte, 1:1 model; average of three
Protocol: as §1, §2, §3

[6] = biological target: T3, recombinant human CD40 extracellular …; experiment: SPR Biacore T200, SVX-3001 amine-coupled to CM5, CD40-Fc analyte, 1:1 model; value 2
Protocol: as §1, §2, §3

[7] = biological target: T2, recombinant human CD40 extracellular …; experiment: SPR Biacore T200, SVX-3001 amine-coupled to CM5, CD40-6His analyte, 1:1 model; average of three
Protocol: as §1, §2, §3

[8] = biological target: T3, recombinant human CD40 extracellular …; experiment: SPR Biacore T200, SVX-3001 amine-coupled to CM5, CD40-Fc analyte, 1:1 model; value 3
Protocol: as §1, §2, §3

[9] = biological target: T2, recombinant human CD40 extracellular …; experiment: SPR Biacore T200, SVX-3001 amine-coupled to CM5, CD40-6His analyte, 1:1 model; value 1
Protocol: as §1, §2, §3

T1 sequence (P25942 21-277 limits assumed): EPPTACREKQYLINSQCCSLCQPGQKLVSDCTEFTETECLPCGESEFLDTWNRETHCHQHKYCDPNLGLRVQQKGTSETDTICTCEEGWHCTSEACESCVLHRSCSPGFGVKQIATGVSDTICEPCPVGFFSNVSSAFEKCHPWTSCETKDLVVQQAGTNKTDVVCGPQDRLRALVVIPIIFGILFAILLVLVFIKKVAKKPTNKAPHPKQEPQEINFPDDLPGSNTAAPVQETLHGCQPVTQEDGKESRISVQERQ

B1: Humanized anti-human CD-40 antibody SVX-3001 (antibody, human IgG1, kappa, V domains shown)
VH: QVQLQQSGPGLVKPSQSLSLTCAVSGYSITTNYYWNWIRQAPGKGLEWVGYIRYDGTTYYAPSLKGRFSITRDTSKNQFFLQLTSVTPEDTATYYCARLDYWGQGTLVTVSS
VL: DIVMTQSPLSLSVSLGDRASISCRSSQSLENSNGNTFLNWFQQKPGQSPQLLIYRVSNRFSGVPDRFSGSGSGTDFTLKISRVEAEDEGVYFCLQVTHVPYTFGGGTKLEIKR
notes: Human IgG1 heavy chain constant region and human kappa light chain constant region; made in HEK 293T cells, used as supernatant or Protein G purified; also called humanised agonist anti-human CD40 antibody; Selvax01
With B1 the binding result [1] was “binds”, the Kd [2] was 6.51 nM and the koff [2] was 0.00375 s⁻¹. For the same binder, the kon [2] was 576000 M⁻¹ s⁻¹, the Kd [3] was 6.5 nM and the koff [3] was 0.00409 s⁻¹. The kon [3] was 628000 M⁻¹ s⁻¹, the Kd [4] was 0.323 nM and the koff [4] was 0.000232 s⁻¹. The kon [4] was 717000 M⁻¹ s⁻¹, the Kd [5] was 0.583 nM and the koff [5] was 0.00033 s⁻¹. For the same binder, the kon [5] was 621000 M⁻¹ s⁻¹, the Kd [6] was 1.12 nM and the koff [6] was 0.000555 s⁻¹. The kon [6] was 497000 M⁻¹ s⁻¹, the Kd [7] was 6.11 nM and the koff [7] was 0.00388 s⁻¹. The kon [7] was 640000 M⁻¹ s⁻¹, the Kd [8] was 0.308 nM and the koff [8] was 0.000203 s⁻¹. For the same binder, the kon [8] was 661000 M⁻¹ s⁻¹, the Kd [9] was 5.33 nM and the koff [9] was 0.00381 s⁻¹. For the same binder, the kon [9] was 715000 M⁻¹ s⁻¹.
